Measurements as given in US20050158323A1, “Methods of killing tumor cells by targeting internal antigens exposed on apoptotic tumor cells” (Vaccinex, Inc., priority 2003, published 2005).

T1: C35 on surface membrane of 21MT1 breast tumor cells (Homo sapiens, UniProt Q9BRT3)
T1 construct: 21MT1, derived from breast carcinoma, naturally expresses high levels of C35; endogenous in cells; host or cells: 21MT1 breast tumor cells
T1 sequence (Q9BRT3 1-115): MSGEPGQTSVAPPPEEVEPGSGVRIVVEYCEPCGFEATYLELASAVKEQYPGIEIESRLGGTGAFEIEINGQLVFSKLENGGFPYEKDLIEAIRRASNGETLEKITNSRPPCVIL

T2: C35 on surface membrane of breast tumor cells that express the C35 tumor antigen (Homo sapiens, UniProt Q9BRT3)
T2 construct: A line of continuously growing breast tumor cells that express the C35 tumor antigen; endogenous in cells
T2 sequence (Q9BRT3 1-115): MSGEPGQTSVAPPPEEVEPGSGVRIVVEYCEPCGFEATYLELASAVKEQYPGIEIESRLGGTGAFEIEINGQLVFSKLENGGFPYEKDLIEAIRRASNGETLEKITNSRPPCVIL

T3: recombinant human C35 (rhC35) (Homo sapiens, UniProt Q9BRT3)
T3 construct: made in house; host or cells: E. coli
T3 sequence (Q9BRT3 1-52): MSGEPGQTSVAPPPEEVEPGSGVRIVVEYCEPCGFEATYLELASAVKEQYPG

T4: recombinant human C35 (rhC35) (Homo sapiens, UniProt Q9BRT3)
T4 construct: made in house; host or cells: E. coli
T4 sequence (Q9BRT3 1-104): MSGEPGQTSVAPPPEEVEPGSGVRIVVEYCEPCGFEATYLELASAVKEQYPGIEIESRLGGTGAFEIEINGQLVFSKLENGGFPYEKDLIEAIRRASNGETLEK

T5: recombinant human C35 (rhC35) (Homo sapiens, UniProt Q9BRT3)
T5 construct: made in house; host or cells: E. coli
T5 sequence (Q9BRT3 1-115): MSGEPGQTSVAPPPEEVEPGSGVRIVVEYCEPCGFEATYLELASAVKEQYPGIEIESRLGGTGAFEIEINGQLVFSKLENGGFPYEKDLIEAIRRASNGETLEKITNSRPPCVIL

T6: C35 protein (Homo sapiens, UniProt Q9BRT3)
T6 sequence (Q9BRT3 1-115): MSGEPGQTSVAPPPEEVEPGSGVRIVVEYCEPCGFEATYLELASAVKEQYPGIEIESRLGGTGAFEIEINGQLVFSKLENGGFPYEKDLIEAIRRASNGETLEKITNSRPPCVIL

T7: C35 positive tumors and cell lines (Homo sapiens, UniProt Q9BRT3)
T7 construct: from tissue
T7 sequence (Q9BRT3 1-115): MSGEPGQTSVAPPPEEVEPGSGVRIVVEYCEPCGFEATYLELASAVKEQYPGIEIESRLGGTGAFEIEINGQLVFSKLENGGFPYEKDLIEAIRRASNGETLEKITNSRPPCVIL


What was measured:
[1] = Maximum Tolerated Dose of chemotherapy in xenograft models (Table 6); conditions: mouse, in vivo, intravenous; nude mice; MTD confirmed by present inventors
Excerpt: Because of concerns regarding cumulative dose-limiting bone marrow toxicity when combining chemotherapy and radioimmunotherapy, it is necessary to determine the Maximum Tolerated Dose (MTD) of combination therapy and, where toxicity of the two therapeutic agents is additive, adopt strategies that will permit administration of both toxic agents. MTD is established by regulatory criteria related to the time required for platelet and white cell recovery in peripheral circulation. Such standards are familiar to those skilled in the art. In the case of murine models, an often employed surrogate definition of MTD is the maximum dose that results in an average of less than 20% weight loss or less than 10% mortality. Currently established MTD for the most common chemotherapeutic agents employed in standard clinical protocols or in animal models are shown in Tables 6 to 9, below.

[2] = target: T1, C35 on surface membrane of 21MT1 breast tumor cells; test: C35 surface staining of breast tumor cells after radiation induced apoptosis (flow cytometry); format: cell-based; conditions: 50 ng Alexa 647 conjugated antibody
Protocol: (§1) A line of continuously growing breast tumor cells that express the C35 tumor antigen was either irradiated with 300 Gy or left untreated. After continued in vitro culture for several days to allow apoptosis to develop, cells were harvested, washed and stained with 50 ng of 1F2 monoclonal anti-C35 antibody or a mouse IgG antibody control each conjugated to the fluorescent dye Alexa 647. Following 50 minutes incubation at 25C, cells were stained with Annexin V and propidium iodide (PI) using a standard commercial kit (Pharmingen). Cells were analyzed for staining with Annexin V, propidium iodide and Alexa 647 by flow cytometry employing standard protocols.

[3] = target: T2, C35 on surface membrane of breast tumor cells that express the C35 tumor antigen; test: C35 surface staining of breast tumor cells after mitomycin C induced apoptosis (flow cytometry); format: cell-based; conditions: 50 ng Alexa 647 conjugated antibody
Protocol: as §1, with “treated” for “irradiated”, “6 ug/ml mitomycin C” for “300 Gy”, “48 hours” for “several days”

[4] = target: T3, recombinant human C35 (rhC35); test: Epitope localization by Western blot of Lys-C digested rhC35; format: binding; conditions: Western blot, 1 μg/ml antibody
Excerpt: (§2) To localize the epitope specificity of 1B3 and 1F2 antibodies, recombinant human C35 (rhC35) synthesized with a 6× His tag in E. coli was digested with Lys-C endoproteinase. This enzyme cuts after lysine (K) residues in the protein sequence. […] The full sequence of rhC35, including the amino terminal 6× His tag addition is shown. Amino acid positions are numbered relative to the amino terminal methionine (M) of the native human sequence. Note that digestion at the first and third lysine followed by negatively charged residues is inefficient and some longer combination fragments may be generated. Lys-C endoproteinase was added to purified rhC35 at a […] weight ratio and incubated for 18 hours at 37° C. in 25 mM Tris, pH 8.0. The digest was ethanol precipitated and resolubilized in reducing Tricine sample buffer. After heating 5 minutes at 100° C., samples were separated by electrophoresis on a 16% Tricine gel (Invitrogen). Peptides were transferred to PVDF membranes and the blots depicted in FIG. 10 were either stained with Coomassie blue (lanes 1-3 of both left and right panels) to detect all peptides or processed with one of the following: 1 μg/ml of the murine 1F2 anti-C35 antibody followed by alkaline phosphatase conjugated goat anti-mouse antibody (lane 4 of left panel); 1 μg/ml of the 1B3 anti-C35 immunoglobulin variable regions linked to human constant regions (MAb11) followed by alkaline phosphatase conjugated goat anti-human antibody (lane 5 of left panel); or anti-6× His tag mouse antibody (Amersham) followed by alkaline phosphatase conjugated goat anti-mouse antibody (lane 4 and 5 of right panel). BCIP/NBT substrate was added and developed to detect the secondary reagents. Molecular weight markers are indicated in the flanking lanes of both panels.
(§3) In FIG. 10, the indicated band A migrates at the position of undigested rhC35. Note that band B stains with 1F2 but not MAb11 (1B3) anti-C35 antibody while band C stains with neither 1F2 nor MAb11 (1B3) antibody. Since bands B and C both do stain with anti-6× His tag antibody to the 6× His tag at the amino terminus of rhC35, it may be concluded that both fragments lack C-terminal peptide fragments. […] This epitope is not required for staining with 1F2.

[5] = target: T4, recombinant human C35 (rhC35); test: as above; format: binding; conditions: Western blot, 1 μg/ml antibody; remark: listed apart in the source
Excerpt: as §2, §3

[6] = target: T5, recombinant human C35 (rhC35); test: as above; format: binding; conditions: native C35 sequence numbering; 1 μg/ml antibody
Excerpt: as §2, §3

C35 protein [7] = target: T6, C35 protein; test: ELISA and Western Blot of hybridoma antibodies; format: binding; conditions: ELISA and Western Blot assays
Protocol: (§4) Hybridoma cell lines IF2.4.1 and 1B3.6.1, specific for C35 polypeptides, were prepared using hybridoma technology. (Kohler et al., Nature 256:495 (1975); Kohler et al., Eur. J. Immunol. 6:511 (1976); Kohler et al., Eur. J. Immunol. 6:292 (1976); Hammerling et al., in: Monoclonal Antibodies and T-Cell Hybridomas, Elsevier, N.Y., pp. 571-681 (1981)). Briefly, hybridoma cell lines were generated using standard PEG fusion to the non-secreting myeloma cell line NS-1 (P3/NS1/1-AG4-1, ATCC #TIB-18) of splenocytes from BALB/c mice immunized with syngeneic BCA34 fibroblast tumor cells transduced to overexpress C35. Following PEG fusion to NS-1, the hybridomas were grown in methylcellulose semi-solid media. Approximately 2 weeks later, hybridoma colonies were isolated into 96 well plates and individual supernatants were tested for reactivity with C35 by ELISA, Western blot, and immunohistochemistry. Positive hybridomas colonies were subcloned and screened for reactivity twice to ensure clonality. Antibodies were isolated from hybridoma supernatants by protein G affinity purification using standard methods. […] In addition, we have developed intracellular staining flow cytometry assays for quantitative analysis using antibodies from hybridoma cell line 1F2 conjugated to Alexa-647 flourochrome. Each of these antibodies is distinct, yet both are specific for C35 protein. […]

[8] = target: T7, C35 positive tumors and cell lines; test: Immunohistochemistry of formalin fixed, paraffin embedded samples; format: binding
Protocol: as §4

C35 protein [9] = target: T6, C35 protein; test: Competitive binding ELISA; conditions: 1F2 versus 1B3
Protocol: as §4

[10] = untreated live cells (PI negative), Annexin V negative

| differential staining versus isotype control antibody [2, 10] | differential staining versus isotype control antibody [3, 10] | staining of approximately 8 kDa band C (in addition lacks residues 53-104) [4] | staining of approximately 15 kDa band B (lacks C35 residues 105-115) [5] | epitope specificity [6] | Molecule | MTD [1] [mg/kg] | differential staining versus isotype control antibody ([2]; irradiated (300 Gy) tumor cells, viable (PI negative), undergoing apoptosis (Annexin V positive)) | differential staining versus isotype control antibody ([3]; 6 ug/ml mitomycin C, 48 hours, viable (PI negative), undergoing apoptosis (Annexin V positive)) | binding to recombinant C35 protein (C35 protein [7]) | immunohistochemical staining [8] | epitope comparison by competition (C35 protein [9]) |
| --- | --- | --- | --- | --- | --- | --- | --- | --- | --- | --- | --- |
|  |  |  |  |  | COc1cccc2c1C(=O)c1c(O)c3c(c(O)c1C2=O)C[C@@](O)(C(=O)CO)C[C@@H]3O[C@H]1C[C@H](N)[C@H](O)[C@H](C)O1 [Adriamycin, Doxorubicin] | 10 |  |  |  |  |  |
| absence of differential staining | absence of differential staining | does not react | stains | residues 53-104 | 1F2: mouse monoclonal anti-C35 antibody from hybridoma 1F2, gamma1 isotype, kappa light chain; VH SEQ ID NO:4, VK SEQ ID NO:6 (antibody, listed as Mus sp., V domains shown) VH: DVQLQESGPGLVKPSQSLSLTCSVTGYSITSGYFWNWIRQFPGNKLEWMGYISYDGSNNSNPSLKNRISFTRDTSKNQFFLKFNSVTTDDSAAYYCTRGTTGFAYWGQGTLVTVSA VL: QIVLTQSPAIMSASPGEKVTISCSASSSVSYMNWYQQKPGSSPKPWIYHTSNLASGVPARFSGSGSGTSYSLTISSMEAEDAATYYCQQYHSYPPTFGGGTKLEIK |  | clearly differentially stained | clearly differentially stained | specifically bind recombinant C35 protein | specifically stain formalin fixed, paraffin embedded C35 positive tumors and cell lines | bind different epitopes of the C35 protein |
